Data taken from paper PMC8622166 (International Journal of Molecular Sciences, 2021).

Biological target: RAC3 (human, UniProt P60763 1-192)
Experiment: stopped-flow fluorimetry; association (kobs) at one concentration: 2 µM GDI mixed with 0.2 µM mdGDP-bound RHO GTPase; 25 °C, 30 mM Tris/HCl pH 7.5, 10 mM K2HPO4/KH2PO4 pH 7.5, 5 mM MgCl2, 3 mM DTT
Details: both partners purified

binding result: binds
B1: GDI3ΔN20 (domain or fragment, human, UniProt Q99819 21-225, looked up)
chain: LCARVLLADKEGGPPAVDEVLDEAVPEYRAPGRKSLLEIRQLDPDDRSLAKYKRVLLGPLPPAVDPSLPNVQVTRLTLLSEQAPGPVVMDLTGDLAVLKDQVFVLKEGVDYRVKISFKVHREIVSGLKCLHHTYRRGLRVDKTVYMVGSYGPSAQEYEFVTPVEEAPRGALVRGPYLVVSLFTDDDRTHHLSWEWGLCICQDWKD
